Measured values as given in article PMC5177888, “An Adaptation To Life In Acid Through A Novel Mevalonate Pathway” (Scientific Reports, 2016).

B1: mevalonate 3,5-bisphosphate decarboxylase (Ta0893) from Thermoplasma acidophilum, recombinant, full length, co-expressed with GroEL/GroES (enzyme, UniProt Q9HJS1 1-405, looked up)
chain: MDTAGMEHSVSWISSNSDELILRSWISSRMDIAELHRAGDDIKEMMKSEGYYSEPSKYEAELSDGNITFAYSYPIKAFEKFLGYYDRENRIAFNPSISMRTDFSFCLAACRYRKNGKTDTVVLDGYADNKYYKKAKFALDKFRSEYSINGSFDFYIKRYRRYQKAKGLSESSAVAAAVSRALISNVFGDDAAKDDIFVSRYARLVSGSGTRAAHDGISMWLSYPGMDSRDCVAFKVGKSNENLNYGVFPKYSDVATDNAHSIAVNSVFYGTWVSEKFSNVKRLISDHFDINDLLKIGENDMLRLNSILMSGGLIIQTPDSLRILKEILKFKSKNEGFYFTADTGPSIAIFSFDRSLIDEFRENVNDEYIEGSYDFKGYNNRMRDFIREAQEYFTQTPGEDEEDRL
notes: Ta0893, mevalonate 3,5-bisphosphate decarboxylase, Thermoplasma acidophilum; NCBI WP_010901303.1; full-length protein; predicted monomer 46.3 kDa; gene codon optimized and synthesized, cloned in pET28a(+) between NdeI and XhoI; The Ni-NTA eluate may still hold E. coli proteins such as the co-expressed chaperones; also called MBD; recombinant Ta0893; source: E. coli BL21(DE3) Gold, co-expressed …
B2: mevalonate 3,5-bisphosphate decarboxylase (Ta0893), native, in Thermoplasma acidophilum lysate (enzyme, UniProt Q9HJS1 1-405, looked up)
chain: MDTAGMEHSVSWISSNSDELILRSWISSRMDIAELHRAGDDIKEMMKSEGYYSEPSKYEAELSDGNITFAYSYPIKAFEKFLGYYDRENRIAFNPSISMRTDFSFCLAACRYRKNGKTDTVVLDGYADNKYYKKAKFALDKFRSEYSINGSFDFYIKRYRRYQKAKGLSESSAVAAAVSRALISNVFGDDAAKDDIFVSRYARLVSGSGTRAAHDGISMWLSYPGMDSRDCVAFKVGKSNENLNYGVFPKYSDVATDNAHSIAVNSVFYGTWVSEKFSNVKRLISDHFDINDLLKIGENDMLRLNSILMSGGLIIQTPDSLRILKEILKFKSKNEGFYFTADTGPSIAIFSFDRSLIDEFRENVNDEYIEGSYDFKGYNNRMRDFIREAQEYFTQTPGEDEEDRL
notes: Ta0893, mevalonate 3,5-bisphosphate decarboxylase, Thermoplasma acidophilum; NCBI WP_010901303.1; predicted monomer 46.3 kDa; followed as MBD activity in the lysate; also called MBD; native MBD; source: endogenous, T. acidophilum cell-free lysate

Legend:
[1] = molecular target: the molecule itself; assay: SEC; recombinant Ta0893 (co-expressed with GroEL/ES) mixed with Biorad gel filtration standard, Superdex S200 10/300 GL, 50 mM sodium phosphate pH 6.5, 500 mM NaCl; fractions assayed for MBD activity; apparent molecular weight from the activity profile
[2] = molecular target: the molecule itself; assay: SEC; T. acidophilum cell-free lysate mixed with Biorad gel filtration standard, Superdex S200 10/300 GL, 50 mM sodium phosphate pH 6.5, 500 mM NaCl; fractions assayed for MBD activity; apparent molecular weight from the activity profile

Protein | stoichiometry N [1] | stoichiometry N [2]
B1 | 2 | –
B2 | – | 2
